Test results reported in patent US20260242735A1 (UNIVERSIT T BASEL, published 2026).

Assays:
Test in all cases: alanine scan, flow cytometry, HEK293-T;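 further: antibody binding to each alanine-substituted CD33 mutant expressed transiently in HEK293-T, read as fluorescence minus background, mean of duplicates, relative to wild-type CD33 set as 100%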
human CD33 Y233A = human CD33 Y233A (human, UniProt P20138 18-364)
human CD33 G241A = human CD33 G241A (human, UniProt P20138 18-364)
human CD33 V231A = human CD33 V231A (human, UniProt P20138 18-364)
human CD33 E224A = human CD33 E224A (human, UniProt P20138 18-364)
human CD33 R202A = human CD33 R202A (human, UniProt P20138 18-364)
human CD33 R190A = human CD33 R190A (human, UniProt P20138 18-364)
human CD33 A183S = human CD33 A183S (human, UniProt P20138 18-364)
human CD33 P175A = human CD33 P175A (human, UniProt P20138 18-364)
human CD33 I176A = human CD33 I176A (human, UniProt P20138 18-364)
human CD33 T222A = human CD33 T222A (human, UniProt P20138 18-364)
human CD33 P235A = human CD33 P235A (human, UniProt P20138 18-364)
human CD33 A168S = human CD33 A168S (human, UniProt P20138 18-364)
human CD33 P184A = human CD33 P184A (human, UniProt P20138 18-364)
human CD33 Q171A = human CD33 Q171A (human, UniProt P20138 18-364)
human CD33 N209A = human CD33 N209A (human, UniProt P20138 18-364)
human CD33 L187A = human CD33 L187A (human, UniProt P20138 18-364)
human CD33 P238A = human CD33 P238A (human, UniProt P20138 18-364)
human CD33 T185A = human CD33 T185A (human, UniProt P20138 18-364)
human CD33 P301A = human CD33 P301A (human, UniProt P20138 18-364)
Chain of human CD33 P301A (P20138 18-364 P301A limits assumed): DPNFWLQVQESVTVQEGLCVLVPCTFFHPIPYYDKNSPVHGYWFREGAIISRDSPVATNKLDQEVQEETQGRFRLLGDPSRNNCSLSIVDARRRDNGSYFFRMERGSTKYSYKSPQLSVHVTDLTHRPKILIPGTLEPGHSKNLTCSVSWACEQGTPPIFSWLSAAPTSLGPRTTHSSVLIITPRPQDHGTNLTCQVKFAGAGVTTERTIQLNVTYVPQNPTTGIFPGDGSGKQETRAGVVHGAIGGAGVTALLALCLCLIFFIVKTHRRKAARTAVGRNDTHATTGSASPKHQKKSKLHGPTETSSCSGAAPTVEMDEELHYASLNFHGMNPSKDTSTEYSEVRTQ

human CD33 L275A = human CD33 L275A (human, UniProt P20138 18-364)
Chain of human CD33 L275A (P20138 18-364 L275A limits assumed): as the sequence (P20138 18-364 P301A limits assumed) above, with L258A, A284P counted along it

human CD33 A290S = human CD33 A290S (human, UniProt P20138 18-364)
Chain of human CD33 A290S (P20138 18-364 A290S limits assumed): as the sequence (P20138 18-364 P301A limits assumed) above, with A273S, A284P counted along it

human CD33 R287A = human CD33 R287A (human, UniProt P20138 18-364)
human CD33 E252A = human CD33 E252A (human, UniProt P20138 18-364)
Chain of human CD33 E252A (P20138 18-364 E252A limits assumed): as the sequence (P20138 18-364 P301A limits assumed) above, with E235A, A284P counted along it

human CD33 V267A = human CD33 V267A (human, UniProt P20138 18-364)
Chain of human CD33 V267A (P20138 18-364 V267A limits assumed): as the sequence (P20138 18-364 P301A limits assumed) above, with V250A, A284P counted along it

human CD33 K288A = human CD33 K288A (human, UniProt P20138 18-364)
Chain of human CD33 K288A (P20138 18-364 K288A limits assumed): as the sequence (P20138 18-364 P301A limits assumed) above, with K271A, A284P counted along it

human CD33 A265S = human CD33 A265S (human, UniProt P20138 18-364)
human CD33 G256A = human CD33 G256A (human, UniProt P20138 18-364)
Chain of human CD33 G256A (P20138 18-364 G256A limits assumed): as the sequence (P20138 18-364 P301A limits assumed) above, with G239A, A284P counted along it

human CD33 G266A = human CD33 G266A (human, UniProt P20138 18-364)
human CD33 A261S = human CD33 A261S (human, UniProt P20138 18-364)
Chain of human CD33 A261S (P20138 18-364 A261S limits assumed): as the sequence (P20138 18-364 P301A limits assumed) above, with A244S, A284P counted along it

human CD33 G264A = human CD33 G264A (human, UniProt P20138 18-364)
Chain of human CD33 G264A (P20138 18-364 G264A limits assumed): as the sequence (P20138 18-364 P301A limits assumed) above, with G247A, A284P counted along it

human CD33 D246A = human CD33 D246A (human, UniProt P20138 18-364)
Chain of human CD33 D246A (P20138 18-364 D246A limits assumed): as the sequence (P20138 18-364 P301A limits assumed) above, with D229A, A284P counted along it

human CD33 T302A = human CD33 T302A (human, UniProt P20138 18-364)
Chain of human CD33 T302A (P20138 18-364 T302A limits assumed): as the sequence (P20138 18-364 P301A limits assumed) above, with A284P, T285A counted along it

human CD33 P308A = human CD33 P308A (human, UniProt P20138 18-364)
Chain of human CD33 P308A (P20138 18-364 P308A limits assumed): as the sequence (P20138 18-364 P301A limits assumed) above, with A284P, P291A counted along it

human CD33 R286A = human CD33 R286A (human, UniProt P20138 18-364)
Chain of human CD33 R286A (P20138 18-364 R286A limits assumed): as the sequence (P20138 18-364 P301A limits assumed) above, with R269A, A284P counted along it

human CD33 S248A = human CD33 S248A (human, UniProt P20138 18-364)
Chain of human CD33 S248A (P20138 18-364 S248A limits assumed): as the sequence (P20138 18-364 P301A limits assumed) above, with S231A, A284P counted along it

human CD33 A269S = human CD33 A269S (human, UniProt P20138 18-364)

Mean % WT Binding (human CD33 Y233A) | Mean % WT Binding (human CD33 G241A) | Mean % WT Binding (human CD33 P301A) | Mean % WT Binding (human CD33 L275A) | Mean % WT Binding (human CD33 A290S) | Mean % WT Binding (human CD33 R287A) | Mean % WT Binding (human CD33 E252A) | Mean % WT Binding (human CD33 V267A) | Mean % WT Binding (human CD33 K288A) | Mean % WT Binding (human CD33 A265S) | Mean % WT Binding (human CD33 G256A) | Mean % WT Binding (human CD33 G266A) | Mean % WT Binding (human CD33 A261S) | Mean % WT Binding (human CD33 G264A) | Mean % WT Binding (human CD33 D246A) | Mean % WT Binding (human CD33 T302A) | Mean % WT Binding (human CD33 P308A) | Mean % WT Binding (human CD33 R286A) | Mean % WT Binding (human CD33 S248A) | Mean % WT Binding (human CD33 A269S) | Binder | further results
115% | 102% |  |  |  |  |  |  |  |  |  |  |  |  |  |  |  |  |  |  | Refmab #1 (antibody, V domains shown, In the alanine scan antibodies were used as IgG or Fab; also called hP67.6) VH: EVQLVQSGAEVKKPGSSVKVSCKASGYTITDSNIHWVRQAPGQSLEWIGYIYPYNGGTDYNQKFKNRATLTVDNPTNTAYMELSSLRSEDTAFYYCVNGNPWLAYWGQGTLVTVSS VL: DIQLTQSPSTLSASVGDRVTITCRASESLDNYGIRFLTWFQQKPGKAPKLLMYAASNQGSGVPSRFSGSGSGTEFTLTISSLQPDDFATYYCQQTKEVPWSFGQGTKVEVK | Mean % WT Binding (human CD33 V231A): 100%; Mean % WT Binding (human CD33 E224A): 95.4%; Mean % WT Binding (human CD33 R202A): 86.7%; Mean % WT Binding (human CD33 R190A): 96.6%; Mean % WT Binding (human CD33 A183S): 85.4%; Mean % WT Binding (human CD33 P175A): 89.4%; Mean % WT Binding (human CD33 I176A): 93.5%; Mean % WT Binding (human CD33 T222A): 88.7%; Mean % WT Binding (human CD33 P235A): 81.4%; Mean % WT Binding (human CD33 A168S): 88.4%; Mean % WT Binding (human CD33 P184A): 82.9%; Mean % WT Binding (human CD33 Q171A): 90.8%; Mean % WT Binding (human CD33 N209A): 92.1%; Mean % WT Binding (human CD33 L187A): 92.3%; Mean % WT Binding (human CD33 P238A): 101%; Mean % WT Binding (human CD33 T185A): 92.3%
 |  | 101 % WT binding | 88.7 % WT binding | 105 % WT binding | 94.7 % WT binding | 98.8 % WT binding | 88.3 % WT binding | 112 % WT binding | 93.2 % WT binding | 89.8 % WT binding | 100 % WT binding | 84.1 % WT binding | 95 % WT binding | 85.2 % WT binding | 95 % WT binding | 94.3 % WT binding | 96.3 % WT binding | 88.4 % WT binding | 107 % WT binding | Refmab #1 (antibody, V domains shown, The alanine scan used IgG or Fab; also called hP67.6) VH: EVQLVQSGAEVKKPGSSVKVSCKASGYTITDSNIHWVRQAPGQSLEWIGYIYPYNGGTDYNQKFKNRATLTVDNPTNTAYMELSSLRSEDTAFYYCVNGNPWLAYWGQGTLVTVSS VL: DIQLTQSPSTLSASVGDRVTITCRASESLDNYGIRFLTWFQQKPGKAPKLLMYAASNQGSGVPSRFSGSGSGTEFTLTISSLQPDDFATYYCQQTKEVPWSFGQGTKVEVK | 
98.5% | 109% |  |  |  |  |  |  |  |  |  |  |  |  |  |  |  |  |  |  | Refmab #4 (antibody, V domains shown, In the alanine scan antibodies were used as IgG or Fab) VH: QVQLVQSGAEVKKPGESVKVSCKASGYTFTNYGMNWVKQAPGQGLEWMGWINTYTGEPTYADKFQGRVTMTTDTSTSTAYMEIRNLGGDDTAVYYCARWSWSDGYYVYFDYWGQGTSVTVSS VL: DIVMTQSPDSLTVSLGERTTINCKSSQSVLDSSTNKNSLAWYQQKPGQPPKLLLSWASTRESGIPDRFSGSGSGTDFTLTIDSPQPEDSATYYCQQSAHFPITFGQGTRLEIK | Mean % WT Binding (human CD33 E224A): 107%; Mean % WT Binding (human CD33 R202A): 88.7%; Mean % WT Binding (human CD33 R190A): 109%; Mean % WT Binding (human CD33 A183S): 103%; Mean % WT Binding (human CD33 P175A): 106%; Mean % WT Binding (human CD33 I176A): 124%; Mean % WT Binding (human CD33 T222A): 109%; Mean % WT Binding (human CD33 P235A): 101%; Mean % WT Binding (human CD33 A168S): 99.9%; Mean % WT Binding (human CD33 P184A): 79.4%; Mean % WT Binding (human CD33 Q171A): 102%; Mean % WT Binding (human CD33 N209A): 88.1%; Mean % WT Binding (human CD33 L187A): 108%; Mean % WT Binding (human CD33 P238A): 117%; Mean % WT Binding (human CD33 T185A): 98.9%
 |  | 97.9 % WT binding | 99.3 % WT binding | 107 % WT binding | 65.3 % WT binding | 115 % WT binding | 116 % WT binding | 100 % WT binding | 126 % WT binding | 104 % WT binding | 112 % WT binding | 65.8 % WT binding | 89.9 % WT binding | 104 % WT binding | 98.2 % WT binding | 99.8 % WT binding | 101 % WT binding | 99.7 % WT binding | 83.6 % WT binding | Refmab #4 (antibody, V domains shown, The alanine scan used IgG or Fab) VH: QVQLVQSGAEVKKPGESVKVSCKASGYTFTNYGMNWVKQAPGQGLEWMGWINTYTGEPTYADKFQGRVTMTTDTSTSTAYMEIRNLGGDDTAVYYCARWSWSDGYYVYFDYWGQGTSVTVSS VL: DIVMTQSPDSLTVSLGERTTINCKSSQSVLDSSTNKNSLAWYQQKPGQPPKLLLSWASTRESGIPDRFSGSGSGTDFTLTIDSPQPEDSATYYCQQSAHFPITFGQGTRLEIK | 
 |  | 91.8 % WT binding | 115 % WT binding | 120 % WT binding | 110 % WT binding | 116 % WT binding | 114 % WT binding | 108 % WT binding | 104 % WT binding | 117 % WT binding | 116 % WT binding | 100 % WT binding | 105 % WT binding | 114 % WT binding | 90.7 % WT binding | 89.7 % WT binding | 117 % WT binding | 93.6 % WT binding | 111 % WT binding | Refmab #2 (antibody, V domains shown, The alanine scan used IgG or Fab) VH: QVQLVQSGAEVKKPGSSVKVSCKASGGTFSDYAISWVRQAPGQGLEWMGRIIPILGVADYAQKFQGRVTITADKSTRTAYMELSSLRSEDTAVYYCARNWADAFDIWGQGTMVTVSS VL: DIQLTQSPSSLSASVGDRVTITCRASQGISSVLAWYQQKPGKAPKLLIYDASSLESGVPSRFSGSGSGTDFTLTISSLQPEDFATYYCQQFDSSITFGQGTKLEIK | 
 |  | 93.9 % WT binding | 123 % WT binding | 97.2 % WT binding | 112 % WT binding | 96.3 % WT binding | 106 % WT binding | 107 % WT binding | 92.4 % WT binding | 94.9 % WT binding | 97.8 % WT binding | 121 % WT binding | 89 % WT binding | 115 % WT binding | 101 % WT binding | 82.8 % WT binding | 92.4 % WT binding | 133 % WT binding | 97.4 % WT binding | Refmab #3 (antibody, V domains shown, The alanine scan used IgG or Fab) VH: QVQLVQSGAEVKKPGSSVKVSCKASGYTFTDYNMHWVRQAPGQGLEWIGYIYPYNGGTGYNQKFKSKATITADESTNTAYMELSSLRSEDTAVYYCARGRPAMDYWGQGTLVTVSS VL: DIQMTQSPSSLSASVGDRVTITCRASESVDNYGISFMNWFQQKPGKAPKLLIYAASNQGSGVPSRFSGSGSGTDFTLTISSLQPDDFATYYCQQSKEVPWTFGQGTKVEIK | 
